Results taken from the supplement of paper PMC9116672.
± gives the standard deviation of the averaged measurements or the uncertainty stated by the source.

What was measured:
[1] = duplex melting temperature (HRM, EvaGreen); higher = more stable duplex
Method: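 Listed DNA strand annealed 1:1 with its complementary strand (95 °C 5 min, 0.1 °C/s to 20 °C). Melted in 1x NNE buffer (500 mM NaCl, 10 mM Na2HPO4, 1 mM EDTA, pH 7.0) with 1x EvaGreen on a LightCycler96 (37 to 97 °C, 0.1 °C/s). Tm is the peak of -dF/dT at the stated total duplex concentration; 4 replicates are averaged. PS oligos are non-stereospecific (Rp/Sp mixtures).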

[2] = duplex formation free energy ΔG50 (Van't Hoff fit of HRM Tm); higher = less stable duplex; details: temperature for dG: 50 °C, NaCl: 500 mM (unadjusted)
Method: (§1)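 Duplex of the listed DNA strand with its complement, in 1x NNE buffer (500 mM NaCl, pH 7.0) with 1x EvaGreen. ΔH and ΔS come from a Van't Hoff linear fit of 1/Tm against ln(CT/4) over 1-20 uM, using HRM Tm values.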

[3] = duplex formation enthalpy ΔH (Van't Hoff fit of HRM Tm); higher = less exothermic duplex formation; details: temperature for dG: 50 °C, NaCl: 500 mM (unadjusted)
Method: as §1

[4] = duplex formation entropy ΔS (Van't Hoff fit of HRM Tm); higher = smaller entropy loss on duplex formation; details: temperature for dG: 50 °C, NaCl: 500 mM (unadjusted)
Method: as §1

[5] = duplex concentration 1 µM, backbone: PO-PO (both strands phosphodiester DNA)
[6] = duplex concentration 1 µM, backbone: PS-PO (listed strand fully phosphorothioate, complement phosphodiester)
[7] = duplex concentration 1 µM, backbone: PS-PS (both strands fully phosphorothioate)
[8] = duplex concentration 2.5 µM, backbone: PO-PO (both strands phosphodiester DNA)
[9] = duplex concentration 2.5 µM, backbone: PS-PO (listed strand fully phosphorothioate, complement phosphodiester)
[10] = duplex concentration 2.5 µM, backbone: PS-PS (both strands fully phosphorothioate)
[11] = duplex concentration 5 µM, backbone: PO-PO (both strands phosphodiester DNA)
[12] = duplex concentration 5 µM, backbone: PS-PO (listed strand fully phosphorothioate, complement phosphodiester)
[13] = duplex concentration 5 µM, backbone: PS-PS (both strands fully phosphorothioate)
[14] = duplex concentration 7.5 µM, backbone: PO-PO (both strands phosphodiester DNA)
[15] = duplex concentration 7.5 µM, backbone: PS-PO (listed strand fully phosphorothioate, complement phosphodiester)
[16] = duplex concentration 7.5 µM, backbone: PS-PS (both strands fully phosphorothioate)
[17] = duplex concentration 10 µM, backbone: PO-PO (both strands phosphodiester DNA)
[18] = duplex concentration 10 µM, backbone: PS-PO (listed strand fully phosphorothioate, complement phosphodiester)
[19] = duplex concentration 10 µM, backbone: PS-PS (both strands fully phosphorothioate)
[20] = duplex concentration 15 µM, backbone: PO-PO (both strands phosphodiester DNA)
[21] = duplex concentration 15 µM, backbone: PS-PO (listed strand fully phosphorothioate, complement phosphodiester)
[22] = duplex concentration 15 µM, backbone: PS-PS (both strands fully phosphorothioate)
[23] = duplex concentration 20 µM, backbone: PO-PO (both strands phosphodiester DNA)
[24] = duplex concentration 20 µM, backbone: PS-PO (listed strand fully phosphorothioate, complement phosphodiester)
[25] = duplex concentration 20 µM, backbone: PS-PS (both strands fully phosphorothioate)
[26] = backbone: PO-PO (both strands phosphodiester DNA)
[27] = backbone: PS-PO (listed strand fully phosphorothioate, complement phosphodiester)
[28] = backbone: PS-PS (both strands fully phosphorothioate)

Sequence | duplex melting temperature [1, 5] [°C] | duplex melting temperature [1, 6] [°C] | duplex melting temperature [1, 7] [°C] | duplex melting temperature [1, 8] [°C] | duplex melting temperature [1, 9] [°C] | duplex melting temperature [1, 10] [°C] | duplex melting temperature [1, 11] [°C] | duplex melting temperature [1, 12] [°C] | duplex melting temperature [1, 13] [°C] | duplex melting temperature [1, 14] [°C] | duplex melting temperature [1, 15] [°C] | duplex melting temperature [1, 16] [°C] | duplex melting temperature [1, 17] [°C] | duplex melting temperature [1, 18] [°C] | duplex melting temperature [1, 19] [°C] | duplex melting temperature [1, 20] [°C] | duplex melting temperature [1, 21] [°C] | duplex melting temperature [1, 22] [°C] | duplex melting temperature [1, 23] [°C] | duplex melting temperature [1, 24] [°C] | duplex melting temperature [1, 25] [°C] | duplex formation free energy ΔG50 [2, 26] [kcal/mol] | duplex formation free energy ΔG50 [2, 27] [kcal/mol] | duplex formation free energy ΔG50 [2, 28] [kcal/mol] | duplex formation enthalpy ΔH [3, 26] [kcal/mol] | duplex formation enthalpy ΔH [3, 27] [kcal/mol] | duplex formation enthalpy ΔH [3, 28] [kcal/mol] | duplex formation entropy ΔS [4, 26] [cal/mol/K] | duplex formation entropy ΔS [4, 27] [cal/mol/K] | duplex formation entropy ΔS [4, 28] [cal/mol/K]
GAGCAGAAGGGGTTGT | 63.5 ± 1.7 | 58.19 ± 0.23 | 49.7 ± 0.9 | 66.19 ± 0.54 | 60.88 ± 0.2 | 53.7 ± 0.54 | 68.16 ± 0.65 | 63.08 ± 0.15 | 55.97 ± 0.26 | 69.5 ± 0.73 | 64.37 ± 0.09 | 57.22 ± 0.19 | 70.88 ± 0.2 | 65.29 ± 0.073 | 57.97 ± 0.097 | 72.362 ± 0.008 | 66.57 ± 0.019 | 59.215 ± 0.054 | 73.62 ± 0.15 | 67.52 ± 0.11 | 60.08 ± 0.23 | -12.4 ± 0.17 | -11.48 ± 0.05 | -9.823 ± 0.063 | -68.3 ± 2.9 | -70.9 ± 1.2 | -63.9 ± 2.9 | -173 ± 8.6 | -184 ± 3.5 | -167 ± 8.8
GAGGCAGCCGCGACCTG | – | – | 63.68 ± 0.2 | 79.56 ± 0.14 | 72.02 ± 0.12 | 66.28 ± 0.29 | 81.39 ± 0.49 | 74.37 ± 0.34 | 68.52 ± 0.17 | 82.28 ± 0.58 | 75.9 ± 0.24 | 69.83 ± 0.094 | 82.97 ± 0.38 | 76.878 ± 0.05 | 70.65 ± 0.094 | 83.76 ± 0.16 | 77.946 ± 0.052 | 71.79 ± 0.097 | 84.53 ± 0.52 | 78.61 ± 0.15 | 72.633 ± 0.05 | – | -14.3 ± 0.27 | -12.88 ± 0.078 | – | -78.6 ± 3.5 | -76.7 ± 1.4 | – | -199 ± 10 | -198 ± 4
GATCTCTCTATCATCGTTTATTGGGTAT | 73.08 ± 0.33 | 62.69 ± 0.48 | 55.1 ± 0.83 | 73.89 ± 0.35 | 64.3 ± 0.58 | 57.06 ± 0.4 | 74.81 ± 0.38 | 65.57 ± 0.42 | 58.33 ± 0.34 | 75.52 ± 0.2 | 66.23 ± 0.5 | 59.33 ± 0.081 | 76.276 ± 0.075 | 66.83 ± 0.22 | 59.89 ± 0.23 | 77.239 ± 0.047 | 67.61 ± 0.095 | 60.59 ± 0.19 | 77.914 ± 0.069 | 68.11 ± 0.096 | 61.27 ± 0.12 | -18.9 ± 0.91 | -14.3 ± 0.18 | -11.5 ± 0.081 | -141 ± 12 | -122 ± 3.9 | -109 ± 3 | -377 ± 36 | -335 ± 11 | -301 ± 9
GATGCCGCAGCGACCTG | – | 67.1 | 61.35 ± 0.33 | 76.6 ± 1.4 | 69.756 ± 0.045 | 64.23 ± 0.086 | 78.68 ± 0.64 | 72.16 ± 0.23 | 66.19 ± 0.1 | 80.46 ± 0.37 | 73.33 ± 0.28 | 67.4 ± 0.078 | 81.03 ± 0.31 | 74.43 ± 0.15 | 68.25 ± 0.097 | 82.09 ± 0.41 | 75.63 ± 0.13 | 69.34 ± 0.12 | 82.88 ± 0.26 | 76.48 ± 0.17 | 70.24 ± 0.13 | – | -13.6 ± 0.14 | -12.42 ± 0.065 | – | -75.7 ± 2.1 | -77.6 ± 1.3 | – | -192 ± 5.9 | -202 ± 3.8
GATTGTATCATCGACATCACACTACC | 73.69 ± 0.2 | 65.7 ± 0.68 | 56.3 ± 0.93 | 74.91 ± 0.39 | 67.05 ± 0.59 | 58.43 ± 0.52 | 76.04 ± 0.6 | 68.37 ± 0.47 | 59.81 ± 0.47 | 76.92 ± 0.26 | 68.77 ± 0.45 | 60.92 ± 0.21 | 77.78 ± 0.12 | 69.57 ± 0.28 | 61.49 ± 0.14 | 78.7 ± 0.1 | 70.36 ± 0.14 | 62.51 ± 0.2 | 79.317 ± 0.061 | 70.75 ± 0.1 | 63.05 ± 0.085 | -18.3 ± 0.7 | -16.1 ± 0.27 | -11.7 ± 0.069 | -127 ± 9.1 | -137 ± 4.9 | -99.2 ± 2.2 | -336 ± 26 | -375 ± 14 | -271 ± 6.5
GCAGGAGCCGCGACCTG | – | 68.45 ± 0.49 | 62.56 ± 0.17 | 78.12 ± 0.35 | 71.31 ± 0.39 | 65.18 ± 0.082 | 79.75 ± 0.071 | 73.48 ± 0.49 | 66.99 ± 0.15 | 80.79 ± 0.2 | 74.78 ± 0.33 | 68.28 ± 0.17 | 81.76 ± 0.16 | 75.68 ± 0.15 | 69.26 ± 0.061 | 82.48 ± 0.27 | 76.9 ± 0.33 | 70.16 ± 0.069 | 83.26 ± 0.12 | 77.68 ± 0.29 | 71.01 ± 0.16 | -17.2 ± 0.47 | -13.98 ± 0.13 | -12.81 ± 0.099 | -100 ± 5.4 | -77.6 ± 1.8 | -81.2 ± 1.9 | -257 ± 15 | -197 ± 5.2 | -212 ± 5.6
GCCCGAGCATGACTGCG | – | 65.4 ± 0.24 | 59.02 ± 0.17 | 75.41 ± 0.19 | 68.14 ± 0.36 | 61.59 ± 0.3 | 76.97 ± 0.085 | 70 ± 0.11 | 63.37 ± 0.21 | 77.92 ± 0.1 | 71.104 ± 0.068 | 64.41 ± 0.16 | 78.54 ± 0.1 | 71.926 ± 0.031 | 65.09 ± 0.084 | 79.72 ± 0.12 | 73.02 ± 0.13 | 66.12 ± 0.12 | 80.63 ± 0.26 | 73.82 ± 0.14 | 66.8 ± 0.27 | -16.3 ± 0.36 | -13.6 ± 0.11 | -12.16 ± 0.1 | -98.8 ± 4.5 | -83.7 ± 1.9 | -86.9 ± 2.4 | -255 ± 13 | -217 ± 5.5 | -231 ± 7.1
GCGGTTGGTGGCCAAC | – | 63.49 ± 0.42 | 56.4 ± 0.12 | 72.845 ± 0.0061 | 65.54 ± 0.56 | 59.65 ± 0.13 | 74.66 ± 0.1 | 67.67 ± 0.49 | 61.64 ± 0.16 | 75.96 ± 0.21 | 68.96 ± 0.29 | 62.663 ± 0.048 | 76.8 ± 0.26 | 69.81 ± 0.25 | 63.516 ± 0.06 | 77.93 ± 0.21 | 71.07 ± 0.17 | 64.64 ± 0.11 | 78.54 ± 0.17 | 71.91 ± 0.09 | 65.39 ± 0.087 | -14.9 ± 0.28 | -12.9 ± 0.13 | -11.29 ± 0.089 | -87 ± 3.6 | -80.6 ± 2.4 | -75.1 ± 2.4 | -223 ± 10 | -209 ± 7.1 | -197 ± 7.2
GCTGAACTAACCACCA | 62.4 ± 1.2 | 55.12 ± 0.072 | 47.5 ± 0.78 | 65.29 ± 0.31 | 57.81 ± 0.12 | 50.39 ± 0.32 | 67.03 ± 0.25 | 60.12 ± 0.057 | 52.54 ± 0.26 | 68.36 ± 0.31 | 61.33 ± 0.085 | 53.74 ± 0.18 | 69.23 ± 0.2 | 62.13 ± 0.097 | 54.62 ± 0.096 | 70.53 ± 0.31 | 63.33 ± 0.14 | 55.67 ± 0.093 | 71.61 ± 0.45 | 64.15 ± 0.058 | 56.62 ± 0.25 | -12.7 ± 0.18 | -10.92 ± 0.045 | -9.252 ± 0.03 | -77.7 ± 3.3 | -73 ± 1.3 | -69.9 ± 2.3 | -201 ± 9.6 | -192 ± 3.9 | -188 ± 7
